These results are taken from paper PMC5328894, “Characterization of a Bacillus thuringiensis chitinase that binds to cellulose and chitin” (AMB Express, 2017).

Substrate in this data set: CC(=O)N[C@H]1[C@H](Oc2ccc([N+](=O)[O-])cc2)O[C@H](CO)[C@@H](O[C@@H]2O[C@H](CO)[C@@H](O)[C@H](O)[C@H]2NC(C)=O)[C@@H]1O
Briefly: initial-rate hydrolysis, Michaelis-Menten fit. It counts as biochemical, Bacillus thuringiensis. The conditions noted are these: 50 mM MES-NaOH, pH 6.0, 50 °C, 0.05-0.8 mM substrate. From the text:
initial-rate hydrolysis, Michaelis-Menten fit on BthChi74

B1: BthChi74 (Bacillus thuringiensis serovar israelensis ATCC 35646) (protein)
chain: MAMRSQKFTLLLLSLLLFLPLFLTNFITPNLALADSPKQSQKIVGYFPSWGVYGRNYQVADIDASKLTHLNYAFADICWKGKHGNPSTHPDNPNKQTWNCKESGVPLQNKEVPNGTLVLGEPWADVTKSYPGSGTTWEDCDKYARCGNFGELKRLKAKYPHLKTIISVGGWTWSNRFSDMAADEKTRKVFAESTVAFLRAYGFDGVDLDWEYPGVETIPGGSYRPEDKQNFTLLLQDVRNALNKAGAEDGKQYLLTIASGASQRYADHTELKKISQILDWINIMTYDFHGGWEATSNHNAALYKDPNDPAANTNFYVDGAIDVYTNEGVPVDKLVLGVPFYGRGWKSCGKENNGQYQPCKPGSDGKLASKGTWDDYSTGDTGVYDYGDLTANYVNKNGFVRYWNDTAKVPYLYNATTGTFISYDDNESMKYKTDYIKTKGLSGAMFWELSGDCRTSPKYSCSGPKLLDTLVKELLGGPINQKDTEPPTNVKNIIVTNKTSSSVQLSWTASTDNVGVTEYEITAGEEKWSATTNSITIKNLKPNTEYTFSVIAKDASGNKSHPTALTVKTDEANTTPPDGNGTATFSVTSNWGSGYNFSIIIKNNGTIPIKNWKLEFDYSGNLTQVWDSKISSKTNNHYVITNAGWNGEIPPGGSITIGGAGTGNPAELLNAVISEN
notes: GH18 catalytic domain + FNIII + CBM2; pET21d(+), E. coli BL21(DE3); vector-derived additions at N- and C-termini, C-terminal His6 designed but probably lost by processing; expected 76 kDa, 74 kDa on SDS-PAGE
Broadly, the Km is the concentration of substrate that gives half-maximal velocity. By kcat is commonly meant the maximal rate divided by the concentration of active sites. One may read the kcat/Km as the turnover number divided by the Michaelis constant. Consider B1, for which the Km was found to be 159 ± 0.5 µM, the kcat was 1.5 ± 0.02 s⁻¹ and the kcat/Km is 10000 M⁻¹ s⁻¹.
